Measurements published in PMC4925323 (Molecular microbiology, 2016).

Target: the molecule itself
Test: crystal structure

B1: Listeria monocytogenes PrsA1 (residues 22-294), wild type (domain or fragment)
chain: CGSSAVIKTDAGSVTQDELYEAMKTTYGNEVVQQLTFKKILEDKYTVTEKEVNAEYKKYEEQYGDSFESTLSSNNLTKTSFKENLEYNLLVQKATEANMDVSESKLKAYYKTWEPDITVRHILVDDEATAKEIQTKLKNGEKFTDLAKEYSTDTATSTNGGLLDPFGPGEMDETFEKAAYALENKDDVSGIVKSTYGYHLIQLVKKTEKGTYAKEKANVKAAYIKSQLTSENMTAALKKELKAANIDIKDSDLKDAFADYTSTSSTSSTTTSN
  stoichiometry N: 2
